Test results: publication PMC8110956, “An infection-induced RhoB-Beclin 1-Hsp90 complex enhances clearance of uropathogenic Escherichia coli” (Nature Communications, 2021)

Target: T1, GST-fused Beclin 1 (human, UniProt Q14457 1-450)
T1 construct: Beclin 1, in pGEX4T-3; also called GST-Beclin 1; source: E. coli BL21 (DE3), purified (Glutathione Sepharose 4B)
Test: pull-down; about 1 μg of each purified GST-fused protein combined in 0.8% BSA in PBS at 4 °C overnight; precipitated with anti-RhoB or anti-Beclin 1 antibody (IgG as control) plus protein G Sepharose; western blot
Conditions: both partners purified

T1 sequence (Q14457 whole entry, the tested form may be a part): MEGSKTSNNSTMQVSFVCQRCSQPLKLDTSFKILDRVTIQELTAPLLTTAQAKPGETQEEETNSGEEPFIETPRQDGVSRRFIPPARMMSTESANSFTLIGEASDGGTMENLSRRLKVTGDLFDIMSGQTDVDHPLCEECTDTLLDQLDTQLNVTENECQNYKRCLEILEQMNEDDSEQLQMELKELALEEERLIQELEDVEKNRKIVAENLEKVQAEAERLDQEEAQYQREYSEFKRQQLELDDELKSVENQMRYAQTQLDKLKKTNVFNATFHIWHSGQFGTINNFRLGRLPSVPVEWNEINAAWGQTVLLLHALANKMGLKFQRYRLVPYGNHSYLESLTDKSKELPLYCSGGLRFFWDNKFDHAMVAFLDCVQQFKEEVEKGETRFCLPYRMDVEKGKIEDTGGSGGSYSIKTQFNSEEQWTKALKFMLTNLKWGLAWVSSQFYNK

binding result: binds
B1: GST-RhoB (118–196) (domain or fragment, human, UniProt P62745 118-196, looked up)
chain: KKDLRSDEHVRTELARMKQEPVRTDDGRAMAVRIQAYDYLECSAKTKEGVREVFETATRAALQKRYGSQNGCINCCKVL
notes: source: E. coli BL21 (DE3), purified (Glutathione Sepharose 4B)
